Source: paper PMC7559355
Read-outs that look alike come from different tables or passages of the source.

Key:
[1] = target: Radiolabeled FabA (3H-labeled FabA) (rabbit); test: SEC; radio-SEC of dosing formulations, 3H-FabA with equimolar albumin; 100 mM sodium phosphate pH 7.4, 10% ethanol
[2] = target: Radiolabeled FabA (3H-labeled FabA) (rabbit); test: SEC; radio-SEC; 3H-FabA (0.57 or 5.7 µM) incubated in cynomolgus monkey vitreous humor supplemented with 50, 100 and 250 µM CSA, 37 °C
[3] = target: Radiolabeled FabA (3H-labeled FabA) (rabbit); test: SEC; radio-SEC; 3H-FabA (0.57 or 5.7 µM) incubated in cynomolgus monkey vitreous humor at endogenous albumin (0.53 µM), 37 °C
[4] = target: FabA (rabbit Fab with the anti-HSA nanobody ALB8 fused to the C-terminus of the heavy chain) (rabbit); test: SPR; Fab captured by its His6 tag on an immobilised anti-His antibody (CM3 chip, about 15 RU); albumin 22.2-1800 nM injected; HBS-P+ (10 mM HEPES, 150 mM NaCl, pH 7.4, 0.05% P20), 25 °C; Langmuir 1:1 model
[5] = target: Radiolabeled FabA (3H-labeled FabA) (rabbit)
[6] = target: FabA (rabbit Fab with the anti-HSA nanobody ALB8 fused to the C-terminus of the heavy chain) (rabbit); test: SPR; Fab captured by its His6 tag on an immobilised anti-His antibody (CM3 chip, about 15 RU); albumin 22.2-1800 nM injected; HBS-P+ (10 mM HEPES, 150 mM NaCl, pH 7.4, 0.05% P20), 25 °C; Langmuir 1:1 model; remark: listed apart in the source
[7] = target: Radiolabeled FabA (3H-labeled FabA) (rabbit); test: as above

| stoichiometry N [1] | stoichiometry N [2] | stoichiometry N [3] | Kd [4] [µM] | koff [4] [s⁻¹] | kon [4] [M⁻¹ s⁻¹] | vitreous humor exposure (AUCinf) of 3H-FabA in rabbits after intravitreal injection of 0.05 mg co-formulated with 1 or 15 nmol HSA (104 and 230 h∙nmol/mL; FabB control with 1 nmol HSA 72.8) [5] [nmol·h/mL] | vitreous humor half-life (t1/2) of 3H-FabA in rabbits after intravitreal injection of 0.05 mg co-formulated with 1 or 15 nmol HSA (58.0 and 149 h; FabB control with 1 nmol HSA 52.1 h) [5] [h] | Kd [6] [µM] | Kd [7] [µM] | Substance |
| --- | --- | --- | --- | --- | --- | --- | --- | --- | --- | --- |
| 1 | 2 | 1 | 0.066 | 0.0065 | 99000 |  |  |  |  | Cynomolgus serum albumin (from UniProt A2V9Z4 25-608) (natural protein) |
|  |  |  | 0.055 |  |  | 230 | 149 | 0.099 | 0.097 | Human serum albumin (from UniProt P02768 25-609) (natural protein) |
